# Measurements published in patent US20050130151.
# Tested on: FMRP RGG box (isolated, C-terminal deletion construct) (Homo sapiens), Q06787-9
# Experiment: filter
substance,measurement,value
28S rRNA fragment (230 nt),Kd,> 5 µM
